Series [1] addresses calf intestinal alkaline phosphatase (CIAP) (calf) (UniProt P19111). The series is described as follows: 32P-RNA binding assay. The following applies: RNA 5 nM, triplicate; Selection buffer 20 mM HEPES pH 7.5, 150 mM NaCl, 5 mM MgCl2, room temperature; binding assay conditions not separately stated (refers to cited protocol).
Series [2] addresses T1, calf intestinal alkaline phosphatase (CIAP) (calf, UniProt P19111 20-506). Nature of the series: 32P-RNA binding assay; RNA 5 nM, triplicate; Selection buffer 20 mM HEPES pH 7.5, 150 mM NaCl, 5 mM MgCl2, room temperature; binding assay conditions not separately stated (refers to cited protocol). To be noted: protein: commercial, tags: biotinylated (Pierce 29339, 69 kDa), chain copies: 2, label: 32P.

Series [3] concerns the target T1, calf intestinal alkaline phosphatase …. Nature of the series: 32P-RNA binding assay; Selection buffer 20 mM HEPES pH 7.5, 150 mM NaCl, 5 mM MgCl2, room temperature; binding assay conditions not separately stated (refers to cited protocol). The following applies: protein: commercial; tags: biotinylated (Pierce 29339, 69 kDa); chain copies: 2; label: 32P; stem-loop, GGG/CCC closing stem.

Series [4] deals with T2, human tissue-nonspecific alkaline phosphatase (human, UniProt P05186 18-501).
T2 sequence: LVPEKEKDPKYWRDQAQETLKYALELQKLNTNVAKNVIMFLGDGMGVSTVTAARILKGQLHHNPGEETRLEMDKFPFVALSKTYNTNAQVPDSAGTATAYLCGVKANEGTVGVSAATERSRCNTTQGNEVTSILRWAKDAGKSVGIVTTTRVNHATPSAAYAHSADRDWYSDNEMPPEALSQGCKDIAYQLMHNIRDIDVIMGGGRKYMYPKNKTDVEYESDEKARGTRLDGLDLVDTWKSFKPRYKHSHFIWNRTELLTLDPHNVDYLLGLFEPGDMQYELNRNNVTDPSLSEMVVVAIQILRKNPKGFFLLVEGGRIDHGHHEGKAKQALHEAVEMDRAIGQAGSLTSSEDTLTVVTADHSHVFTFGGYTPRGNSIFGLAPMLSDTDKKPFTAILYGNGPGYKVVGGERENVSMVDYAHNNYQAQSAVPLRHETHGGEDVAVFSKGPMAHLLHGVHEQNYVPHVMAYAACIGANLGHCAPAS
The series is described as follows: 32P-RNA binding assay; up to 250 nM protein, single point; Selection buffer 20 mM HEPES pH 7.5, 150 mM NaCl, 5 mM MgCl2, room temperature; binding assay conditions not separately stated (refers to cited protocol). The following applies: protein: recombinant; chain copies: 2; label: 32P; stem-loop, GGG/CCC closing stem.

Series [5] has as its target human intestinal alkaline phosphatase (human, UniProt P09923 20-503). The series is described as above. To be noted: protein: recombinant; chain copies: 2; label: 32P; stem-loop, GGG/CCC closing stem.
Series [6] addresses T1, calf intestinal alkaline phosphatase …. The series is described as follows: 32P-RNA bead binding assay; not above no-protein beads; prefers naked beads; Selection buffer 20 mM HEPES pH 7.5, 150 mM NaCl, 5 mM MgCl2, room temperature; binding assay conditions not separately stated (refers to cited protocol). The following applies: protein: commercial; tags: biotinylated (Pierce 29339, 69 kDa); chain copies: 2; label: 32P.

The target is the same in series [7]. The series is described as follows: 32P-RNA bead binding assay; not above no-protein beads; Selection buffer 20 mM HEPES pH 7.5, 150 mM NaCl, 5 mM MgCl2, room temperature; binding assay conditions not separately stated (refers to cited protocol). The following applies: protein: commercial; tags: biotinylated (Pierce 29339, 69 kDa); chain copies: 2; label: 32P.

T1 sequence (P19111 20-506): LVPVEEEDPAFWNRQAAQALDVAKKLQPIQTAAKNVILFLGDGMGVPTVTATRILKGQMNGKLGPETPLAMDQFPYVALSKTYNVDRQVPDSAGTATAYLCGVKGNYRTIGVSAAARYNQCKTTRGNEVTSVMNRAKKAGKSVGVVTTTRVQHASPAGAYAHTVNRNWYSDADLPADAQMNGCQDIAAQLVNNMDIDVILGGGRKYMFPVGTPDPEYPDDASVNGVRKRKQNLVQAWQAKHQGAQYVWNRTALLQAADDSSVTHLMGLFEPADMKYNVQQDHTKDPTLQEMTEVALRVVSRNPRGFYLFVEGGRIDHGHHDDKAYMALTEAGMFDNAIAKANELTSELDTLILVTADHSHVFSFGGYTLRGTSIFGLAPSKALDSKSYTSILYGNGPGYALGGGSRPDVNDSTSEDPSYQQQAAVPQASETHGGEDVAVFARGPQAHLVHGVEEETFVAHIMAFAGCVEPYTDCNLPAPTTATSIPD
Chain of human intestinal alkaline phosphatase (P09923 20-503): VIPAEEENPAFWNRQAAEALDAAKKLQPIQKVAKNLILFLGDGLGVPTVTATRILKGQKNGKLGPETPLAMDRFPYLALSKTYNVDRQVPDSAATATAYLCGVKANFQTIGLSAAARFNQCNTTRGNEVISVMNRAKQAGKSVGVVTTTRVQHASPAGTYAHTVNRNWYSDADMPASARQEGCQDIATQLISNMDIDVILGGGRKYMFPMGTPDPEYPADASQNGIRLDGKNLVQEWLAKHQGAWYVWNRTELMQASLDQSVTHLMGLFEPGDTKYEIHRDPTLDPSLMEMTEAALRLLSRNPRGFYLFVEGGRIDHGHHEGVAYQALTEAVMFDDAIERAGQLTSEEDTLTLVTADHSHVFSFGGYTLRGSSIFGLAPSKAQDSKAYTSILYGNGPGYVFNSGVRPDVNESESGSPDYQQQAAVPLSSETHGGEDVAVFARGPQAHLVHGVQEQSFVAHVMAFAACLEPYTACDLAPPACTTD
Chain of calf intestinal alkaline phosphatase (CIAP) (calf) (P19111 20-506): as the sequence (P19111 20-506) above

“GGGUUUACCUAGGUGUAGAUGCUUCWAUUGAUAUGUUAUAACUGAACUCAACAUAAGGAUAUGAUGUAUGAUCAAGUGACGUCUGAACUGCUUCGAA [aptamer clone 4-9]”: the Kd (as a rule, the equilibrium constant for the complex coming apart) in series [1] turned out to be 9.4 nM.

B1: aptamer clone 3-6 (structured_RNA)
RNA: GGGUUUACCUAGGUGUAGAUGCUCUGCCCUUCAGAUUUAUCGAUGACCGUUGAACUCAACAUAAGACCUUCCAAAGUGACGUCUGAACUGCUUCGAA
Molecule B1 yielded an equilibrium dissociation constant (Kd) in series [2] (VDH motif in loop and stem) of 10.8 nM.

B2: minimized aptamer variant 3.1 (structured_RNA)
RNA: GGGUAGAUGCUGUAUAUAGCGAACUCAACAUAAGGUAUAAUUACAAUUUCUACCC
In the case of B2, the Kd in series [3] was 6.7 nM. Further, the binding result in series [4] and in series [5] was “no binding” in each case.

B3: aptamer clone 4-3 (structured_RNA)
RNA: GGGUUUACCUAGGUGUAGAUGCUGUAUAUAGCGAACUCAACAUAAGGUAUAAUUACAAUUUCUAUACUUCUUCAAGUGACGUCUGAACUGCUUCGAA
On to B3, for which, in series [2] (VDH motif in loop), the dissociation constant Kd was found to be 5 nM.

B4: clone c2-1 (structured_RNA)
RNA: GGGUUUACCUAGGUGUAGAUGCUGAUAGAUUUCCCCUGACUUAGGAGCUCAUUAGAUUUUUAUUGUGUGGGGCAAGUGACGUCUGAACUGCUUCGAA
Turning to B4, the binding result in series [6] was “no binding”.

B5: clone c2-4 (structured_RNA)
RNA: GGGUUUACCUAGGUGUAGAUGCUUCUUCACUCCUUAUGAACACGUAGCGCUCAAUCAUCUCUAAUUAAUUCUCAAGUGACGUCUGAACUGCUUCGAA
Take B5: in series [7], the binding result is on record as “no binding”.

The values are drawn from PMC6696043, “Aptamers in Education: Undergraduates Make Aptamers and Acquire 21st Century Skills Along the Way”.
